{
  "source": "patent US20250195578A1",
  "about": "“MEDIUM COMPOSITION FOR CULTURING URINE-DERIVED STEM CELL, METHOD FOR ISOLATING AND CULTURING URINE-DERIVED STEM CELL USING SAME, URINE-DERIVED STEM CELL WITH IMPROVED THERAPEUTIC FUNCTION FOR RENAL DISEASE, AND CELL THERAPY PRODUCT COMPOSITION CONTAINING SAME” (EHLBIO CO., LTD., priority 2021, published 2025)",
  "molecules": {"B1": {"name": "FGF23: growth factor added to the culture medium (Sigma-Aldrich) (protein, UniProt Q9GZV9 25-251, looked up)", "Fibroblast growth factor 23": "YPNASPLLGSSWGGLIHLYTATARNSYHLQIHKNGHVDGAPHQTIYSALMIRSEDAGFVVITGVMSRRYLCMDFRGNIFGSHYFDPENCRFQHQTLENGYDVYHSPQYHFLVSLGRAKRAFLPGMNPPPYSQFLSRRNEIPLIHFNTPIPRRHTRSAEDDSERDPLNVLKPRARMTPAPASCSQELPSAEDNSPMASDPLGVVRGGRVNTHAGGTGPEGCRPFAKFI"}, "B2": {"name": "PTH: parathyroid hormone (PTH), medium additive (Sigma-Aldrich) (peptide, UniProt P01270 32-115, looked up)", "Parathyroid hormone": "SVSEIQLMHNLGKHLNSMERVEWLRKKLQDVHNFVALGAPLAPRDAGSQRPRKKEDNVLVESHEKSLGEADKADVNVLTKAKSQ", "modifications": "Parathyroid hormone"}},
  "key": {"[1]": {"tested_on": "klotho gene", "test": "Optimal additive concentration: klotho gene expression in urine-derived stem cells", "type": "cell-based, human", "conditions": "for effect on klotho gene expression of addition to TM8 medium: compared to control group, dose-dependent; for optimal concentration (klotho gene expression): enhancement in gene expression relative to added dosage", "method": "(§1) In this Example, cell proliferation rate or klotho gene analysis was conducted with various concentrations of lipid mixture (CDLC), T3, FGF23, Calcifediol, and PTH in the TM8 culture medium to explore their optimal concentrations (see FIG. 5).\nFurthermore, FGF23, Calcifediol, and PTH that are added to the culture medium of the present disclosure are growth factors and hormones that interact through the endocrine system in the human kidney. The klotho proteins in the human body mediate these interactions. The inventors aimed to enhance the expression of klotho proteins in urine-derived stem cells by mimicking the endocrine system in the human body through the composition of the culture medium. In this Example, evaluation was made of the enhancement of klotho gene expression in urine-derived stem cells in various concentration ranges of FGF23, Calcifediol, and PTH to determine their optimal concentrations.\n(§2) Additionally, in this Example, to explore the optimal concentrations while excluding the interactions among the substances, each substance was individually added to the TM8 basal medium (hereinafter referred to as proliferation or klotho gene TM8-Basal), and cell expression was analyzed and compared. The TM8 medium containing all substances at their optimal concentrations was used as the control group (FIG. 6)."}, "[2]": {"tested_on": "urine-derived stem cells", "test": "Optimal additive concentration: cell proliferation rate of urine-derived stem cells", "type": "cell-based, human", "conditions": "enhancement in proliferation relative to added dosage", "method": "as §1\nSpecifically, CDLC was used to compensate for the decrease in cell proliferation rate caused by low serum usage, while T3 was used to facilitate the proliferation of urine-derived stem cells with characteristics of epithelial cells. In this example, evaluation was made of the improvement of cell proliferation rate in urine-derived stem cells in various concentration ranges of lipid mixture and T3 to determine their optimal concentrations.\nas §2"}},
  "data": [
    {"molecule": "C=C1CC[C@H](O)C/C1=C/C=C1\\CCC[C@]2(C)[C@@H]([C@H](C)CCCC(C)(C)O)CC[C@@H]12", "note": "[Calcifediol, reference compound]", "values": [
      {"measurement": "effect on klotho gene expression of addition to TM8 medium", "setting": "[1]", "result": "increased klotho gene expression"},
      {"measurement": "optimal concentration (klotho gene expression)", "setting": "[1]", "result": 100, "unit": "nM"}
    ]},
    {"molecule": "N[C@@H](Cc1cc(I)c(Oc2ccc(O)c(I)c2)c(I)c1)C(=O)O", "note": "[T3, Triiodo-L-thyronine]", "values": [
      {"measurement": "optimal concentration (cell proliferation)", "setting": "[2]", "result": 10, "unit": "nM"}
    ]},
    {"molecule": "B1", "values": [
      {"measurement": "effect on klotho gene expression of addition to TM8 medium", "setting": "[1]", "result": "increased klotho gene expression"},
      {"measurement": "optimal concentration (klotho gene expression)", "setting": "[1]", "result": 10, "unit": "ng/mL"}
    ]},
    {"molecule": "B2", "values": [
      {"measurement": "effect on klotho gene expression of addition to TM8 medium", "setting": "[1]", "result": "increased klotho gene expression"},
      {"measurement": "optimal concentration (klotho gene expression)", "setting": "[1]", "result": 100, "unit": "nM"}
    ]}
  ]
}
